Assay results from IntAct's records for PubMed 17932490.

B1: Serine/threonine-protein kinase 4 (Homo sapiens), Q13043 (parent)
chain: METVQLRNPPRRQLKKLDEDSLTKQPEEVFDVLEKLGEGSYGSVYKAIHKETGQIVAIKQVPVESDLQEIIKEISIMQQCDSPHVVKYYGSYFKNTDLWIVMEYCGAGSVSDIIRLRNKTLTEDEIATILQSTLKGLEYLHFMRKIHRDIKAGNILLNTEGHAKLADFGVAGQLTDTMAKRNTVIGTPFWMAPEVIQEIGYNCVADIWSLGITAIEMAEGKPPYADIHPMRAIFMIPTNPPPTFRKPELWSDNFTDFVKQCLVKSPEQRATATQLLQHPFVRSAKGVSILRDLINEAMDVKLKRQESQQREVDQDDEENSEEDEMDSGTMVRAVGDEMGTVRVASTMTDGANTMIEHDDTLPSQLGTMVINAEDEEEEGTMKRRDETMQPAKPSFLEYFEQKEKENQINSFGKSVPGPLKNSSDWKIPQDGDYEFLKSWTVEDLQKRLLALDPMMEQEIEEIRQKYQSKRQPILDAIEAKKRRQQNF

Variants of: B1
Conditions: with akt1_human AKT1, P31749
Sequence of akt1_human AKT1, P31749 (P31749 whole entry): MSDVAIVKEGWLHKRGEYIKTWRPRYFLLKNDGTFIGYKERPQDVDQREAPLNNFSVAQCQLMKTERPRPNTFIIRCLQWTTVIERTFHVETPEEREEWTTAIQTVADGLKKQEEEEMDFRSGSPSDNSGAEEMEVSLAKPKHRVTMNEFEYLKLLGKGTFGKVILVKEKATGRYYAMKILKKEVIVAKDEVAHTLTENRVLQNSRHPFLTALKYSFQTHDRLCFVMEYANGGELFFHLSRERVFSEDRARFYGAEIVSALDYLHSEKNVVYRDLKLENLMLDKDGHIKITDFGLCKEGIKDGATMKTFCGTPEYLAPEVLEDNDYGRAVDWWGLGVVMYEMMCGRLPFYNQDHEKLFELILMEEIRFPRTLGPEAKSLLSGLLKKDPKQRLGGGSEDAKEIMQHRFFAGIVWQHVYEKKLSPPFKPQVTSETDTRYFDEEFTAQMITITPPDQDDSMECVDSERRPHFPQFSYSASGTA

| Variant | effect of a mutation on the interaction |
| --- | --- |
| K59R | disrupting interaction |
